Read-outs that look alike come from different tables or passages of the source.
Columns and labels:
[1] = target: T1, VEGF165 (VEGF-A isoform 165) (UniProt P15692-4 27-191); test: EMSA
[2] = target: T1, VEGF165 (VEGF-A isoform 165); test: EMSA; remark: listed apart in the source

B1: V7t1 dimer (purified SE-HPLC peak 1) (structured_DNA)
DNA: TGTGGGGGTGGACGGGCCGGGTAGA
- binding result [1]: binds

B2: V7t1 not-annealed (about 73% dimer, 26% monomer) (structured_DNA)
DNA: TGTGGGGGTGGACGGGCCGGGTAGA
- binding result [2]: binds
